Data as given in US20180177166.

Legend:
Assay in all cases: cell_activity
[1] = tested on: ssMYF5 1.1 TALEN right (synthetic (Xanthomonas TALE-FokI)?); conditions: TALEN pair with P3, pig fibroblasts; site printed on top strand
[2] = tested on: ssMYOD 1.2 TALEN right (synthetic (Xanthomonas TALE-FokI)?); conditions: TALEN pair with P1, pig fibroblasts
[3] = tested on: ssMYOD 1.2 TALEN left (synthetic (Xanthomonas TALE-FokI)?); conditions: TALEN pair with P2, triplex transfection with HDR oligo, pig fibroblasts, HindIII RFLP
[4] = tested on: ssMYF6 1.2 TALEN right (synthetic (Xanthomonas TALE-FokI)?); conditions: TALEN pair with P5, pig fibroblasts; site printed on top strand
[5] = tested on: ssMYF6 1.2 TALEN left (synthetic (Xanthomonas TALE-FokI)?); conditions: TALEN pair with P6, triplex transfection with HDR oligo, pig fibroblasts, HindIII RFLP
[6] = tested on: ssMYF5 1.1 TALEN left (synthetic (Xanthomonas TALE-FokI)?); conditions: TALEN pair with P4, triplex transfection with HDR oligo, pig fibroblasts, HindIII RFLP

Sequence: AAATCCACCACCATGG (double strand) [ssMYF5 1.1 right half-site]
- activity (% HDR alleles) [1]: 31

Sequence: AGGCTGCCCAAGGTGG (double strand) [ssMYOD 1.2 right half-site]
- activity (% HDR alleles) [2]: 14

Sequence: CAAGAGGTGCACCAC (double strand) [ssMYOD 1.2 left half-site]
- activity (% HDR alleles) [3]: 14

Sequence: GACAGCAGTGGAGAGGA (double strand) [ssMYF6 1.2 right half-site]
- activity (% HDR alleles) [4]: 36

Sequence: GCCAGGACCAAATGCC (double strand) [ssMYF6 1.2 left half-site]
- activity (% HDR alleles) [5]: 36

Sequence: GCCTCATGTGGGCCTG (double strand) [ssMYF5 1.1 left half-site]
- activity (% HDR alleles) [6]: 31
